For seven molecules, activity results are on record in US20260022354, “TRANSPOSASES AND USES THEREOF” (Poseida Therapeutics, Inc., published 2026).

In the data set the target is T1, GFP1 Right TAL-PBx (synthetic).
T1 chain: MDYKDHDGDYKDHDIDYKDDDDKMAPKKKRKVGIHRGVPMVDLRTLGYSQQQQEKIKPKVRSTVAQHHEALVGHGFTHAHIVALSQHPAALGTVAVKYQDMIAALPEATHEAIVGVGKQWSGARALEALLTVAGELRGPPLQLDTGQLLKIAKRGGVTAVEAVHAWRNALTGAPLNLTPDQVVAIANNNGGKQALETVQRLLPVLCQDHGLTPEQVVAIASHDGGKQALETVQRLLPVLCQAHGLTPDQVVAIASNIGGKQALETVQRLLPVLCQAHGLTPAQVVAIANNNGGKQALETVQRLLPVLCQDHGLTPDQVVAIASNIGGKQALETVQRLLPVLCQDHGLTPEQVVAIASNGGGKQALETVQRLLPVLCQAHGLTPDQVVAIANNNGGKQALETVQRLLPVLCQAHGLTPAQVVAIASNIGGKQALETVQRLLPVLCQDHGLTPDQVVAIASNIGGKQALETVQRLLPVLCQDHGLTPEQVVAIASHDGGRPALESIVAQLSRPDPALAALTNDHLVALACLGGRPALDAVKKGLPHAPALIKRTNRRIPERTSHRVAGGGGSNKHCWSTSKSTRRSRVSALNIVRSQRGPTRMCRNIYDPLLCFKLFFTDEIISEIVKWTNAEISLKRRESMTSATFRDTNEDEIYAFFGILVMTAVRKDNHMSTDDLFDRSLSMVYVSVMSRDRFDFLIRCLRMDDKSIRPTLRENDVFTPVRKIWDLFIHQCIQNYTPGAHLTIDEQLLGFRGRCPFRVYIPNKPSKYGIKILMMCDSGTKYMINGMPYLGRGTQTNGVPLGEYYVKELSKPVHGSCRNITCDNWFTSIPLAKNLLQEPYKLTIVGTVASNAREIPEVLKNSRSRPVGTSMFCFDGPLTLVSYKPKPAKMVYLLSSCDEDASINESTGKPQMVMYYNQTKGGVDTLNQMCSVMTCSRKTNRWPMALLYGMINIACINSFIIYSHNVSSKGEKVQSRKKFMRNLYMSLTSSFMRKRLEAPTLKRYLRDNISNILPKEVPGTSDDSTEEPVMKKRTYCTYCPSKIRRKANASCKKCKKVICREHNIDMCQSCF
Nature of the data set: cell_activity; HEK293T. To be noted: tags: PBx fusion; chain copies: 2 (palindromic half-sites; inferred). As to the method: Each reporter plasmid and donor plasmid were cotransfected into HEK293T cells with the GFP1 Right TAL-PBx expression plasmid (SEQ ID No. 77). […] HEK293T cells were plated in 24 well plates in 500 μL of DMEM medium supplemented with 10% FBS. The following day, a transfection mixture containing 50 ng of the TAL-ssSPB expression vector, 225 ng of the reporter plasmid, 225 ng of donor plasmid and 1 μL of JetPrime transfection reagent in a total volume of 50 μL of JetPrime buffer were assembled. The mixture was added to the HEK293T cells and the cells were incubated for four days at 37° C. at 5% CO2, splitting the cells 1:6 on day one. The percentage of on-target site-specific transposition positive cells for the various constructs were determined by FACS analysis on day 4.
When the reporter and donor plasmids are co-transfected into cells along with TAL-PBx, TAL-PBx catalyzes the excision of the transposon from the donor plasmid and its site-specific integration into the TTAA target site of the reporter plasmid. Following site-specific transposition, transcription, splicing, and translation, a reconstituted GFP coding sequence is produced (DNA SEQ ID No. 75; Amino acid SEQ ID No. 76) and fluorescence can be detected. The percentage of on-target site-specific transposition positive cells for the various spacer length constructs were determined by FACS analysis and the results are shown in Table 9.

Substitutions are numbered along the chain they refer to.

B1: GFP1 Right 13bp CTTAAC (dsDNA)
DNA 1: TGCAGATGAACGCAATCTCACGGCTTAACTACTGACCTGAAGTTCATCTGCA
DNA 2: TGCAGATGAACTTCAGGTCAGTAGTTAAGCCGTGAGATTGCGTTCATCTGCA
Take B1: the activity was found to be 20.9 % GFP+ cells.

B2: GFP1 Right 13bp CTTAAG (dsDNA)
DNA 1: B1 DNA 1 with C29G
DNA 2: B1 DNA 2 with G24C
B2 showed an activity of 24.7 % GFP+ cells.

B3: GFP1 Right 13bp TTTAAA (dsDNA)
DNA 1: B1 DNA 1 with C24T, C29A
DNA 2: B1 DNA 2 with G24T, G29A
Regarding B3, the activity was found to be 27 % GFP+ cells.

B4: GFP1 Right 13bp TTTAAG (dsDNA)
DNA 1: B1 DNA 1 with C24T, C29G
DNA 2: B1 DNA 2 with G24C, G29A
Molecule B4 registered an activity of 32.2 % GFP+ cells.

B5: GFP1 Right 13bp CTTAAA (dsDNA)
DNA 1: B1 DNA 1 with C29A
DNA 2: B1 DNA 2 with G24T
Molecule B5 registered an activity of 32.8 % GFP+ cells.

B6: GFP1 Right 12bp TTTAAA (dsDNA)
DNA 1: TGCAGATGAACGCAATCTCCGGTTTAAATACTGACTGAAGTTCATCTGCA
DNA 2: TGCAGATGAACTTCAGTCAGTATTTAAACCGGAGATTGCGTTCATCTGCA
For the molecule B6, the activity amounted to 30.8 % GFP+ cells.

B7: GFP1 Right 12bp CTTAAA (dsDNA)
DNA 1: B6 DNA 1 with T23C
DNA 2: B6 DNA 2 with A28G
The molecule B7 yielded an activity of 34.6 % GFP+ cells.
